B1: C9orf25 (parent)
chain: LARKGSLKNGSMGSPVNQQPKKNN
B2: IKZF1 (parent)
chain: HIKLHSGEKPFKCHLCNYACRRRD
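Further: lentivirally expressed fusions sorted by FACS into six bins by GFP to DsRed ratio, PSI derived from sequencing read proportions per bin multiplied by bin number.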

Variants of: B1
Test: protein stability index of a GFP-peptide fusion (GPS, HEK-293T) (PSI 1-6); higher = more stable
Conditions: c terminus: a fixed tail appended
For LARKISLKNGSMGSPVNQQPKKNN [G5I], the protein stability index was 3.99. LARKPSLKNGSMGSPVNQQPKKNN [G5P] gave a protein stability index of 4.48.

Variants of: B2
Test: as above
Conditions: c terminus: a fixed tail appended
For HIKLHSGEKPFKCHLCNYAARRRD [C20A], the protein stability index was 2.41. In the case of HIKLHSGEKPFKCHLCNYAGRRRD [C20G], the protein stability index is reported as 1.96. For HIKLHSGEKPFKCHLCNYASRRRD [C20S], the protein stability index was 1.69. HIKLHSGEKPFKCHLCNYATRRRD [C20T] showed a protein stability index of 2.08. Work on HIKLHSGEKPFKCHLCNYAKRRRD [C20K] yielded a protein stability index of 1.64. Work on HIKLHSGEKPFKCHLCNYAFRRRD [C20F] yielded a protein stability index of 2.25. Variant HIKLHSGEKPFKCHLCNYAWRRRD [C20W] has a protein stability index of 2.83. Work on HIKLHSGEKPFKCHLCNYAPRRRD [C20P] yielded a protein stability index of 3.08. In the case of HIKLHSGEKPFKCHLCNYAVRRRD [C20V], the protein stability index is reported as 2.89. HIKLHSGEKPFKCHLCNYAYRRRD [C20Y] showed a protein stability index of 1.86. Work on HIKLHSGEKPFKCHLCNYAERRRD [C20E] yielded a protein stability index of 1.83. Variant HIKLHSGEKPFKCHLCNYARRRRD [C20R] has a protein stability index of 1.96. In the case of HIKLHSGEKPFKCHLCNYADRRRD [C20D], the protein stability index is reported as 1.59. With HIKLHSGEKPFKCHLCNYAQRRRD [C20Q] the protein stability index was 2.39. Variant HIKLHSGEKPFKCHLCNYAHRRRD [C20H] has a protein stability index of 1.94. Variant HIKLHSGEKPFKCHLCNYANRRRD [C20N] has a protein stability index of 2.35. For HIKLHSGEKPFKCHLCNYAMRRRD [C20M], the protein stability index was 2.5. Variant HIKLHSGEKPFKCHLCNYALRRRD [C20L] has a protein stability index of 1.63. HIKLHSGEKPFKCHLCNYACRWRD [R22W] showed a protein stability index of 3.09. HIKLHSGEKPFKCHLCNYACRVRD [R22V] gave a protein stability index of 1.91. For HIKLHSGEKPFKCHLCNYACRARD [R22A], the protein stability index was 1.68. In the case of HIKLHSGEKPFKCHLCNYACRGRD [R22G], the protein stability index is reported as 1.5. For HIKLHSGEKPFKCHLCNYACRDRD [R22D], the protein stability index was 1.76. HIKLHSGEKPFKCHLCNYACRPRD [R22P] showed a protein stability index of 1.86. HIKLHSGEKPFKCHLCNYACRTRD [R22T] showed a protein stability index of 2.5. Variant HIKLHSGEKPFKCHLCNYACRCRD [R22C] has a protein stability index of 1.87. In the case of HIKLHSGEKPFKCHLCNYACRHRD [R22H], the protein stability index is reported as 2.71. HIKLHSGEKPFKCHLCNYACRLRD [R22L] gave a protein stability index of 1.72. HIKLHSGEKPFKCHLCNYACRNRD [R22N] gave a protein stability index of 1.2. Work on HIKLHSGEKPFKCHLCNYACRERD [R22E] yielded a protein stability index of 1.95. HIKLHSGEKPFKCHLCNYACRSRD [R22S] gave a protein stability index of 2.97. For HIKLHSGEKPFKCHLCNYACRIRD [R22I], the protein stability index was 1.7. Variant HIKLHSGEKPFKCHLCNYACRFRD [R22F] has a protein stability index of 2.03. Variant HIKLHSGEKPFKCHLCNYACRYRD [R22Y] has a protein stability index of 2.05. With HIKLHSGEKPFKCHLCNYACRQRD [R22Q] the protein stability index was 2.2. In the case of HIKLHSGEKPFKCHLCNYACRMRD [R22M], the protein stability index is reported as 1.87. HIKLHSGEKPFKCHLCNYACRKRD [R22K] gave a protein stability index of 1.95. Variant HIKLHSGEKPFKCHLCNYACERRD [R21E] has a protein stability index of 2.27. HIKLHSGEKPFKCHLCNYACSRRD [R21S] showed a protein stability index of 1.99. Work on HIKLHSGEKPFKCHLCNYACYRRD [R21Y] yielded a protein stability index of 1.58. With HIKLHSGEKPFKCHLCNYACARRD [R21A] the protein stability index was 3.46. Work on HIKLHSGEKPFKCHLCNYACNRRD [R21N] yielded a protein stability index of 1.65. In the case of HIKLHSGEKPFKCHLCNYACDRRD [R21D], the protein stability index is reported as 1.29. Variant HIKLHSGEKPFKCHLCNYACKRRD [R21K] has a protein stability index of 2.19. Variant HIKLHSGEKPFKCHLCNYACHRRD [R21H] has a protein stability index of 2.27. With HIKLHSGEKPFKCHLCNYACVRRD [R21V] the protein stability index was 1.3. For HIKLHSGEKPFKCHLCNYACPRRD [R21P], the protein stability index was 2.39. For HIKLHSGEKPFKCHLCNYACLRRD [R21L], the protein stability index was 1.59. With HIKLHSGEKPFKCHLCNYACQRRD [R21Q] the protein stability index was 1.15. In the case of HIKLHSGEKPFKCHLCNYACWRRD [R21W], the protein stability index is reported as 1.49. In the case of HIKLHSGEKPFKCHLCNYACMRRD [R21M], the protein stability index is reported as 1.79. HIKLHSGEKPFKCHLCNYACFRRD [R21F] showed a protein stability index of 2.22. HIKLHSGEKPFKCHLCNYACCRRD [R21C] showed a protein stability index of 1.78. Variant HIKLHSGEKPFKCHLCNYACGRRD [R21G] has a protein stability index of 2.41. Variant HIKLHSGEKPFKCHLCNYACTRRD [R21T] has a protein stability index of 2.38. HIKLHSGEKPFKCHLCNYACRRSD [R23S] showed a protein stability index of 1.87. HIKLHSGEKPFKCHLCNYACRRQD [R23Q] showed a protein stability index of 1.71. In the case of HIKLHSGEKPFKCHLCNYACRRID [R23I], the protein stability index is reported as 2. With HIKLHSGEKPFKCHLCNYACRRVD [R23V] the protein stability index was 2.4. Work on HIKLHSGEKPFKCHLCNYACRRGD [R23G] yielded a protein stability index of 2.04. In the case of HIKLHSGEKPFKCHLCNYACRRCD [R23C], the protein stability index is reported as 2.27. In the case of HIKLHSGEKPFKCHLCNYACRRFD [R23F], the protein stability index is reported as 2.36. In the case of HIKLHSGEKPFKCHLCNYACRRND [R23N], the protein stability index is reported as 1.63. HIKLHSGEKPFKCHLCNYACRRAD [R23A] showed a protein stability index of 2.13. Work on HIKLHSGEKPFKCHLCNYACRRTD [R23T] yielded a protein stability index of 1.48. HIKLHSGEKPFKCHLCNYACRRWD [R23W] showed a protein stability index of 2.21. With HIKLHSGEKPFKCHLCNYACRRHD [R23H] the protein stability index was 2.12. HIKLHSGEKPFKCHLCNYACRRYD [R23Y] gave a protein stability index of 1.72. HIKLHSGEKPFKCHLCNYACRRDD [R23D] gave a protein stability index of 2.18. Variant HIKLHSGEKPFKCHLCNYACRRMD [R23M] has a protein stability index of 2.4. Variant HIKLHSGEKPFKCHLCNYACRRLD [R23L] has a protein stability index of 1.44. Variant HIKLHSGEKPFKCHLCNYACRRPD [R23P] has a protein stability index of 2.02. In the case of HIKLHSGEKPFKCHLCNYACRRKD [R23K], the protein stability index is reported as 2.26. Variant HIKLHSGEKPFKCHLCNYACRRED [R23E] has a protein stability index of 1.8. With HIKLHSGEKPFKCHLCNYACRRRT [D24T] the protein stability index was 2.31. Variant HIKLHSGEKPFKCHLCNYACRRRN [D24N] has a protein stability index of 1.76. For HIKLHSGEKPFKCHLCNYACRRRR [D24R], the protein stability index was 2.22. HIKLHSGEKPFKCHLCNYACRRRA [D24A] gave a protein stability index of 2.29. Work on HIKLHSGEKPFKCHLCNYACRRRM [D24M] yielded a protein stability index of 1.97. In the case of HIKLHSGEKPFKCHLCNYACRRRV [D24V], the protein stability index is reported as 2.39. Variant HIKLHSGEKPFKCHLCNYACRRRH [D24H] has a protein stability index of 2.06. HIKLHSGEKPFKCHLCNYACRRRI [D24I] gave a protein stability index of 2.89. Variant HIKLHSGEKPFKCHLCNYACRRRK [D24K] has a protein stability index of 2.48. For HIKLHSGEKPFKCHLCNYACRRRS [D24S], the protein stability index was 1.43. With HIKLHSGEKPFKCHLCNYACRRRP [D24P] the protein stability index was 2.09. HIKLHSGEKPFKCHLCNYACRRRC [D24C] showed a protein stability index of 2.22. In the case of HIKLHSGEKPFKCHLCNYACRRRF [D24F], the protein stability index is reported as 2.54. HIKLHSGEKPFKCHLCNYACRRRL [D24L] gave a protein stability index of 2.01. For HIKLHSGEKPFKCHLCNYACRRRG [D24G], the protein stability index was 2.04. In the case of HIKLHSGEKPFKCHLCNYACRRRQ [D24Q], the protein stability index is reported as 1.73. HIKLHSGEKPFKCHLCNYACRRRE [D24E] gave a protein stability index of 1.99. HIKLHSGEKPFKCHLCNYACRRRY [D24Y] showed a protein stability index of 1.9.
